Reference: patent publication US20230279018A1, “AP[…] INHIBITION” (priority 2020, published 2023)

Tests used:
[1] = molecular target: T1, Plasmodium vivax cytoplasmic phenylalanyl-tRNA synthetase (PvcFRS) beta subunit (PVX_090880) (Plasmodium vivax, UniProt A5K464 1-617); test: analytical gel filtration (Superdex 200) of co-expressed, co-purified alpha and beta subunits
T1 construct: Said to be full-length; Tag or fusion residues from the vector are not described; Two copies stand in the α2β2 heterotetramer; also called PvcFRS β subunit; PvFRS β subunit
T1 sequence: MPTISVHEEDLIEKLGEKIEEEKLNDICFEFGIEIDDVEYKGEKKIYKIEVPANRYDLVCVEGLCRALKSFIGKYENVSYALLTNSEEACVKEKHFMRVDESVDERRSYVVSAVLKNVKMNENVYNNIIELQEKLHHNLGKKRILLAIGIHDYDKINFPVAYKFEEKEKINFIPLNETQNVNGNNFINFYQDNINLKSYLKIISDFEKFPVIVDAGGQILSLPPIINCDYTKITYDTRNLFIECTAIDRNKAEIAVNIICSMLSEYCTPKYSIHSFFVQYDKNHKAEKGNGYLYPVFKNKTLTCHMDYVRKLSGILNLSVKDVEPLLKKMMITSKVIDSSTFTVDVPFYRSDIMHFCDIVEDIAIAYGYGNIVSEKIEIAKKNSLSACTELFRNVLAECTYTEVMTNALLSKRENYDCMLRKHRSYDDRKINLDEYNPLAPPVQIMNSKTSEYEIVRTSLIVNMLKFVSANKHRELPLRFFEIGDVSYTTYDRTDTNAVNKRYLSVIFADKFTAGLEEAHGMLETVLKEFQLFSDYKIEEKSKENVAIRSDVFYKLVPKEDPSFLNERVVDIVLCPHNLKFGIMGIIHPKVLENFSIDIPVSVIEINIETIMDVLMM

[2] = molecular target: T2, Plasmodium falciparum cytoplasmic phenylalanyl-tRNA synthetase (PfcFRS) beta subunit (Plasmodium falciparum); test: SDS-PAGE of the final purified protein (co-purification of the α and β subunits)
T2 construct: Tags are not described; also called PfcFRS β subunit; Pf-β
T2 chain: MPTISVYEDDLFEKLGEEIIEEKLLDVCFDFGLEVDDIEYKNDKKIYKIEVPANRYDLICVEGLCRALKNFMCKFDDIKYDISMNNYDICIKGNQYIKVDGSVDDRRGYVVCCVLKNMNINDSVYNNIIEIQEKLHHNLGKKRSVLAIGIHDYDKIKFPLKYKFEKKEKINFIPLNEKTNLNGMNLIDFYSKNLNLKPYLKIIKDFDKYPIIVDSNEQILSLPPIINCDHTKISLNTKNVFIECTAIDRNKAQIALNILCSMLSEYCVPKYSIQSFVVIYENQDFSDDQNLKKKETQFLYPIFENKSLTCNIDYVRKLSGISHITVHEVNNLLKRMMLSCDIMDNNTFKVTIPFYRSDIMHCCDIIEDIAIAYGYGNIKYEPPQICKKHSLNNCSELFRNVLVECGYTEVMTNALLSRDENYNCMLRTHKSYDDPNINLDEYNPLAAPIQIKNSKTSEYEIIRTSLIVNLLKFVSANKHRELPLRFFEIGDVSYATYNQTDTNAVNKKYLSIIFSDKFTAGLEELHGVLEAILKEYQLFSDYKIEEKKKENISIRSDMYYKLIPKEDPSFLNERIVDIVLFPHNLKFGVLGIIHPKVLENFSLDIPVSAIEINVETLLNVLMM

B1: Plasmodium vivax cytoplasmic phenylalanyl-tRNA synthetase (PvcFRS) alpha subunit (PVX_081300) (enzyme)
chain: MQAKAQEEQKGEELSQFLQALEEEFALCQEGGGDKREADGPSLENAEAEELANRRAYYLQLKEERNVLVEESKHVTSLHMSSKHNIEHAKVLGMAKKLETLYYVVNHVRSFNTYQLTEEGKEYLRDGSPEHVTLRYVMEQEGCTLEDLKKLFGKKGEIGLNINLKKKKIELRKSDKRLFPHVEGSAHSLVDETRCYLQKVEAHGNDEGALVSHLKGILPPEKGEKKEEDEANNLIKELKKRKLIEAKKISYIYIIRTNLFTKEIKKQITDLTYLLIKNEEYKKYQVKKYNFFSSGKKMNKGNIHLLIRQMRTFKDVFVSLGFEEMNTHNYVESSFWCFDALYIPQQHPSRDLQDTFFIKVPEMCQEEFTDQSYIENVKRVHSVGDYGSFGWNYQWELKSTKKNVLRTHTTANSCRALFQLAKEYQKTGSIIPKKFFSIDRVFRNENLDSTHLAEFHQVEGLIIDRNLGLSHLIGTLSAFYKYIGISKLRFKPTFNPYTEPSMEVYGYHEENKKWLEVGNSGIFRPEMLRAMGFPPEVSVIAWGLSLERPTMIKYSIRNIRDLFGYRSVI
notes: Said to be full-length; Tag residues from the vector are not described; Two copies stand in the α2β2 heterotetramer; Residues 1-270 were disordered in the crystal; also called PvcFRS α subunit; PvFRS α subunit
Q: Does B1 bind [1]?
A: binds

B2: Plasmodium falciparum cytoplasmic phenylalanyl-tRNA synthetase (PfcFRS) alpha subunit (enzyme)
chain: MSTNNVEEKKNEELYNLLNILEEEFNLSKIENKNNNKNDDGDDDDVNKREDNNNNEYYKKLKDEKGLDVLINEYTTSLKISKKYNIDHNKVMGMIKKLETLYYIINLIKSFNTYHLSDEGKQYLKEGSPEFIVIKYVIQNNKCTLEDLKKNLGKIGDIGLNTNLKNRTIQLNKADKCLTCNCNLHDIQDFTQIYLDIINQYGHDEELLFAHLKNKNHTKNALNNNEMKNSCKDNNIINNLIQDLKKRKLLEIKKNSYSHVIKTSIFKKDIKKQITDINYLLLKNEEYKKYDIKKYNFFSSGKKINKGNIHLLTKQMRTFKEIFFSLGFEEMETHNYVESSFWCFDALYIPQQHPSRDLQDTFFIKEPETCIDKFVDTEYIDNIKRVHTHGDYGSFGWNYKWKLEESKKNVLRTHTTANSCRALFKLAKEYKEAGCIKPKKYFSIDRVFRNENLDSTHLAEFHQVEGLIIDKNIGLSHLIGTLAAFYKHIGIHKLKFKPTFNPYTEPSMEIYGYHEQSKKWLEVGNSGIFRPEMLRSMGFSEEVSVIAWGLSLERPTMIKYNIKNIRDLFGYKSVV
notes: Tags are not described; also called PfcFRS α subunit
Q: Does B2 bind [2]?
A: binds
